Reference: article PMC5171221
Like-named read-outs stand apart in the source and are kept apart here.

What was measured:
[1] = target: T1, apododecin DtE (triple E variant) (Halobacterium salinarum, UniProt B0R5M0 1-68, E45A;del50-50;del51-51); test: QCM-D
T1 sequence: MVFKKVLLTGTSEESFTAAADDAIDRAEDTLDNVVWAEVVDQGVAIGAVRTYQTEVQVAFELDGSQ

[2] = target: T1, apododecin DtE (triple E variant); test: QCM-D; remark: listed apart in the source

B1: flavin-dsDNA 100 bp surface tether (dsDNA)
DNA 1: GTCACGATGGCCCAGTAGTT
DNA 2: AACTACTGGGCCATCGTGAC
DNA 3: CGCCGCCGCCGACGACGCCATCGACCGCGCGGAGGACACCCTCGACAACGTGGTGTGGGCGTCACGATGGCCCAGTAGTT
DNA 4: GCCCACACCACGTTGTCGAGGGTGTCCTCCGCGCGGTCGATGGCGTCGTCGGCGGCGGCGAACTACTGGGCCATCGTGAC
modifications: strand 1 5' flavin (CofC4); strand 2 5' (dithiane)3, on gold
binding result [1]: binds

B2: flavin-dsLNA 7 bp surface tether (XNA)
?: GGGCGAC
DNA: GTCGCCC
modifications: LNA; strand 1 5' flavin (CofC4); strand 2 5' 1,2-dithiane, on gold
binding result [2]: binds
